According to patent publication US20230073007A1 (OPTOLANE TECHNOLOGIES, published 2023):
No end group written: not given here.

T1: CRP (UniProt P02741 19-224)
T1 construct: also called antigen CRP
T1 sequence (looked up): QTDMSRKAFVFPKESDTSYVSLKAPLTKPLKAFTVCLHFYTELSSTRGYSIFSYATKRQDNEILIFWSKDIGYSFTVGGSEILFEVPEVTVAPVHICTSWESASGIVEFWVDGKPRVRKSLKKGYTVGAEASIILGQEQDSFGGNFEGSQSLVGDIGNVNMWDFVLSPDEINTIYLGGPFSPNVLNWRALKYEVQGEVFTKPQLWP

B1: switching binder of SEQ ID NO. 3 (L1) (peptide)
peptide: TYLEWYPQKPGQSPKLLIYK
modifications: also: fluorescence label in fluorescence assays, dye and place not given here
notes: also called PEPTIDE 3
B2: switching binder of SEQ ID NO. 2 (H2) (peptide)
peptide: VYYCAREPTGTGIYFDVWGK
modifications: also: fluorescence label in fluorescence assays, dye and place not given here
notes: also called PEPTIDE 2
B3: switching binder of SEQ ID NO. 4 (L2) (peptide)
peptide: VYYCFQGSHVPFTK
modifications: also: fluorescence label in fluorescence assays, dye and place not given here
notes: also called PEPTIDE 4

Key:
anti-HRP antibody [1] = target: T2, anti-HRP antibody; assay: SPR, anti-HRP antibody immobilized on gold chip, peptide at 10 µM
T2 construct: also called anti-HRP antibody 10
Method: (§1) Carbodiimide/N-Hydroxysuccinimide (EDC/NHS, 0.4 M/0.1 M) was mixed in a 1:1 ratio and treated for 10 minutes to activate functional groups. […] Thereafter, it was used after blocking with an ethanolamine concentration of 1 M for 10 minutes. All of the switching binders 100 were treated by incubation for 30 minutes using two concentrations of 10 and 20 μM, respectively. The SPR signal can be measured as an average value by repeating the routine of measuring the SPR signal for 3 minutes while the solution is stopped after flowing 1% Tween-20 washing solution for 1 minute three times.

anti-HRP antibody [2] = target: T2, anti-HRP antibody; assay: SPR, anti-HRP antibody immobilized on gold chip, peptide at 20 µM
Method: as §1

[3] = target: T3, antibody 10 immobilized by the support 30 (FIG. 7A; antibody not identified); assay: fluorescence of labeled peptide vs peptide concentration on immobilized antibody (FIG. 7A)
T3 construct: also called the antibody 10

CRP = target: T1, CRP; assay: fluorescence of labelled peptide (20 µM) on protein coated at 100 µg/mL on a solid support
protein A = protein A (UniProt P38507 37-477); assay: as above
[4] = target: B2; assay: FRET between the labelled peptides L1 and H2, L1 peptide concentration varied (linear axis, 0-10 µM)
[5] = target: T3, antibody 10 immobilized by the support …; assay: fluorescence of labelled peptide on an antibody fixed on a support, peptide concentration varied (log axis, 0.1-100 µM)
anti-HRP antibody [6] = target: T2, anti-HRP antibody; assay: fluorescence of labelled peptide (10 µM) on anti-HRP antibody fixed on a solid support, before (A) and after (B) HRP 10 µg/ml; C = fluorescence in the solution
Method: (§2) 1 to 4 were each treated at a concentration of 10 μM (100 μl/well) for 2 hours. At this time, after measuring the fluorescence of the bottom, the antigen HRP as an analyte for an IgG antibody of rabbit was treated at a concentration of 10 μg/ml for 1 hour. […] 1 to 4 were each treated at a concentration of 20 μM (100 μl/well) for 2 hours. At this time, after measuring the fluorescence of the bottom, the antigen HCG as an analyte for an IgG antibody of a mouse was treated at a concentration of 100 μg/ml for 2 hours.

anti-HBsAg antibody = assay: fluorescence of labelled peptide (20 µM) on anti-HBsAg antibody fixed on a solid support, before (A) and after (B) HBsAg 10 µg/ml; C = fluorescence in the solution
anti-CRP antibody = assay: fluorescence of labelled peptide (20 µM) on anti-CRP antibody fixed on a solid support, before (A) and after (B) antigen 10 µg/ml (CRP by paragraph 170; paragraph 172 writes HRP); C = fluorescence in the solution
Method: 1 to 4 were each treated at a concentration of 20 μM (100 μl/well) for 2 hours. At this time, after measuring the fluorescence of the bottom (A), the antigen HRP as an analyte for an IgG antibody of rabbit was treated at a concentration of 10 μg/ml for 1 hour. […] 1 to 4 were each treated at a concentration of 20 μM (100 μl/well) for 2 hours. At this time, after measuring the fluorescence of the bottom (A), the antigen HBsAg as an analyte for an IgG antibody of a goat was treated at a concentration of 10 μg/ml for 1 hour.

[7] = target: B1; assay: FRET between the two peptides (FIG. 5E)
anti-hCG antibody = assay: fluorescence of labelled peptide (20 µM) on anti-hCG antibody fixed on a solid support, before (A) and after (B) hCG 100 µg/ml; C = fluorescence in the solution
Method: as §2

[8] = target: B3; assay: FRET between the labelled peptides H1 and L2, H1 peptide concentration varied (linear axis, 0-10 µM)

| Binder | SPR signal (anti-HRP antibody [1]) [RU] | SPR signal (anti-HRP antibody [2]) [RU] | Kd [3] [µM] | binding result (CRP) | binding result (protein A) | binding result [4] | EC50 (read off the curve) [5] [µM] | percent printed over the arrow from bar A to bar B (residual bound peptide after antigen; agrees with B as percent of A) (anti-HRP antibody [6]) [%] | percent printed over the arrow from bar A to bar B (residual bound peptide after antigen; agrees with B as percent of A) (anti-HBsAg antibody) [%] | percent printed over the arrow from bar A to bar B (residual bound peptide after antigen; agrees with B as percent of A) (anti-CRP antibody) [%] | binding result [7] | percent printed over the arrow from bar A to bar B (residual bound peptide after antigen; agrees with B as percent of A) (anti-hCG antibody) [%] | binding result [8] |
| --- | --- | --- | --- | --- | --- | --- | --- | --- | --- | --- | --- | --- | --- |
| B1 | 25.3 | 40.4 | 6.62 | no binding (tested: 20 µM) | no binding (tested: 20 µM) | binds | ~6 | 12.8 | 51.4 | 51.4 | – | – | – |
| B2 | 51.5 | 192 | 19.4 | no binding (tested: 20 µM) | – | – | – | 14.8 | 60.5 | 60.5 | binds | 11.5 | – |
| B3 | 125 | 418 | 6.68 | no binding (tested: 20 µM) | no binding (tested: 20 µM) | – | – | 25.5 | 55.1 | 55.1 | – | 9.3 | – |
| SYWIHWVKQRPGQGLEWIGE (also: fluorescence label in fluorescence assays, dye and place not given here, also called PEPTIDE 1) [switching binder of SEQ ID NO. 1 (H1)] | 34.4 | 121 | 1.42 | no binding (tested: 20 µM) | no binding (tested: 20 µM) | – | – | 12.3 | 73.2 | 73.2 | – | 34.4 | binds |
